The values below are quoted from earlier work in patent US12077586B2, “Bispecific antibodies for use in the treatment of hematological malignancies” (LAVA THERAPEUTICS N.V., priority 2018, dated 2024).

Sequences and labels used below:
B1: 5B11: Vγ9Vδ2-TCR binding VHH, SEQ ID NO: 155 (protein)
VHH: EVQLVESGGGLVQAGGSLRLSCAASGRTSSTFSMAWFRQAPRKEREFVAAINWSGGSTRYADSVSDRFAISRDNAKNTVYLQMNNLKPEDTAVYYCAARRGGIYYSTQNDYDYWGQGTQVTVSS
modifications: antibody sequence
B2: 6E4: Vγ9Vδ2-TCR binding VHH, SEQ ID NO: 152 (protein)
VHH: EVQLVESGGGLVQAGGSLRLSCAASGFTFDDYCIAWFRQAPGKEREPVSCITTSDGSTYYADSVKGRFTISSDNAKNTVYLQMNRLKPEDTAVYYCAAYFGYGCYGGAQDYRAMDYWGKGTLVTVSS
modifications: antibody sequence
B3: 5C7: Vγ9Vδ2-TCR binding VHH, SEQ ID NO: 153 (protein)
VHH: EVQLVESGGGLVQAGDSLRLSCAASGRTFSRYTMGWFRQAPGKEREFVAAISWSGGRTNFAGSVKGRFTISRDNAKNTVYLQMNSLKPEDTAVYYCAADWLPVPGRESYDYWGQGTQVTVSS
modifications: antibody sequence
B4: 6C4: Vγ9Vδ2-TCR binding VHH, SEQ ID NO: 156 (protein)
VHH: EVQLVESGGGLVQAGGSLRLSCAVSVRTFSDYRMGWFRQAPGKEREFVSTISWSGGLTYYADSVKGRFTISRDNSKNTLYLQMNSLKPEDTAVYYCAAGGGYAGGTYYHPEEWGQGTQVTVSS
modifications: antibody sequence
B5: 5D7: Vγ9Vδ2-TCR binding VHH, SEQ ID NO: 154 (protein)
VHH: EVQLVESGGGLVQAGGSLRLSCIASGRTFSNYAMGWFRQAPGKEREFVAAISWSGGMTDHADSVKGRFTISRDNAKNTVYLQMNSLKPEDTAVYYCAAAFAGDIPYGSSWYGDPTTYDYWGQGTQVTVSS
modifications: antibody sequence
B6: 5F5: Vγ9Vδ2-TCR binding VHH, SEQ ID NO: 150 (protein)
VHH: EVQLVESGGGLVQAGGSLRLSCAASGRTFSNYAMGWFRQAPGKEREFVAAISWSGGSTYYADSVKGRFTISRDNAKNTVYLQMNSLKPEDTAVYYCAAMFSGSESQLVVVITNLYEYDYWGQGTQVTVSS
modifications: antibody sequence
B7: 6A1: Vγ9Vδ2-TCR binding VHH, SEQ ID NO: 151 (protein)
VHH: EVQLVESGGGLVQAGGSLRLSCAASGRTFSNYAMGWFRQAPGKEREFVATISWSGGSTYYADSVKGRFTISRDNAKNTVYLQMNSLKPEDTAVYYCAAAFSGSDYANTKKEVEYDYWGQGTQVTVSS
modifications: antibody sequence
B8: 5E3: Vγ9Vδ2-TCR binding VHH, SEQ ID NO: 139 (protein)
VHH: EVQLVESGGGLVQAGGSLRLSCTASGRTFSSYAMGWFRQAPGKEREFVAAISWSGGTTYYADSVKGRFTISRDNAKNTVSLQMNSLKPEDTAVYFCAASLDCSGPGCHTAEYDYWGQGTQVTVSS
modifications: antibody sequence
B9: 6G3: Vγ9Vδ2-TCR binding VHH, SEQ ID NO: 148 (protein)
VHH: EVQLVESGGGLVQAGGSLRLSCAASGRPFNNYGMGWFRQAPGKEREFVAGISWSGGSTYYADSVKGRFTISRDNAKNTVYLQMNSLKPEDTAVYYCAAVFSGAETAQYPSYDYDYWGQGTQVTVSS
modifications: antibody sequence

T2 sequence (Q99603 with tags, fused parts or gaps T7A limits assumed): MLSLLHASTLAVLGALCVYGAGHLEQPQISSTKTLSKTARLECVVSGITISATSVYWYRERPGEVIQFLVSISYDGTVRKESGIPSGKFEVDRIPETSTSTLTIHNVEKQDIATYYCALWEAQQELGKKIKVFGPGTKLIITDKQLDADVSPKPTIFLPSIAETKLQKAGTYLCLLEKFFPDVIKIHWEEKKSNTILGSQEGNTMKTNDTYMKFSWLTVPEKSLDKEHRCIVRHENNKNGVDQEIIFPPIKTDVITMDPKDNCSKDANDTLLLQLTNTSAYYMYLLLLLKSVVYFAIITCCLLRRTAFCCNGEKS
T2 sequence (P07766 23-207 partner): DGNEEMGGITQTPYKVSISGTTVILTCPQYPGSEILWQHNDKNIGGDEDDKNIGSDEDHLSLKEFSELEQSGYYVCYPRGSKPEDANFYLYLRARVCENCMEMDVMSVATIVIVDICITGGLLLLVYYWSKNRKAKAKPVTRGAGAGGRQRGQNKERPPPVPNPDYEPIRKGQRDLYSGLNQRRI
T2 sequence (P09693 23-182 partner): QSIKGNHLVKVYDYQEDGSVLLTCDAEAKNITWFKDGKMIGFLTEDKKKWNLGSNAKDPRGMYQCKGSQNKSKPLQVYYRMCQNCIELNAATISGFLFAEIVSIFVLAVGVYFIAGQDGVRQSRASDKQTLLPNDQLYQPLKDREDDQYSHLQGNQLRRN
T2 sequence (P04234 22-171 partner): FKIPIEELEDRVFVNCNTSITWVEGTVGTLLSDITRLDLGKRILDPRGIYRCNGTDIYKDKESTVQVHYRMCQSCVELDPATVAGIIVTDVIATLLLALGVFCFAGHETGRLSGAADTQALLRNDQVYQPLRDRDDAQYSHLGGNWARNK
T2 sequence (P20963 22-164 partner): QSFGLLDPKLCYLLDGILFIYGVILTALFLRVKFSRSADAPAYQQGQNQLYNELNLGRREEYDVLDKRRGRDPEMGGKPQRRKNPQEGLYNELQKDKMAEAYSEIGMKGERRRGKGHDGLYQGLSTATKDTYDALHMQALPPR
T3 sequence (Q99603 with tags, fused parts or gaps T7A limits assumed): as the sequence (Q99603 with tags, fused parts or gaps T7A limits assumed) above
T3 sequence (A0JD36 with tags, fused parts or gaps, stated change not applied): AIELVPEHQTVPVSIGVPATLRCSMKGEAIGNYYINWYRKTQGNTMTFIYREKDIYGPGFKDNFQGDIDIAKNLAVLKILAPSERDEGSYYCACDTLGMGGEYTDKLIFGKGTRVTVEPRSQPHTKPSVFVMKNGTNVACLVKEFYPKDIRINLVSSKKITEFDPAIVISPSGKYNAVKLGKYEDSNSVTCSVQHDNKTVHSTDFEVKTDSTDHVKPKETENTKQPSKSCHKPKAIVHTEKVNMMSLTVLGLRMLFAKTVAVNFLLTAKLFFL
T3 sequence (P07766 23-207 partner): as the sequence (P07766 23-207 partner) above
T3 sequence (P09693 23-182 partner): as the sequence (P09693 23-182 partner) above
T3 sequence (P04234 22-171 partner): as the sequence (P04234 22-171 partner) above
T3 sequence (P20963 22-164 partner): as the sequence (P20963 22-164 partner) above

For the first data set, the target named is T1, Vδ2 chain (Homo sapiens, UniProt A0JD36).
T1 construct: host or cells: γδ T-cells expressing a Vδ2 chain paired with a non-Vγ9 chain
T1 sequence (A0JD36 with tags, fused parts or gaps): as the sequence (A0JD36 with tags, fused parts or gaps, stated change not applied) above
T1 sequence (P07766 23-207 partner): as the sequence (P07766 23-207 partner) above
T1 sequence (P09693 23-182 partner): as the sequence (P09693 23-182 partner) above
T1 sequence (P04234 22-171 partner): as the sequence (P04234 22-171 partner) above
T1 sequence (P20963 22-164 partner): as the sequence (P20963 22-164 partner) above
The following applies: Mean Fluorescence Index class; γδ T-cells expressing Vδ2 chain paired with non Vγ9 chain; cited from earlier work.
Consider B1, for which the “Binding, Vδ2+” value is recorded as “− (“−” indicates a Mean Fluorescence Index (MFI) below 1.5)”.

Regarding B2, the “Binding, Vδ2+” value was “++ (“++” indicates an MFI above 20)”.

Consider B3, for which the “Binding, Vδ2+” value was “+/− (“+/−” indicates an MFI of between 1.5 and 4.5)”.

Take B4: the “Binding, Vδ2+” value was “+/− (“+/−” indicates an MFI of between 1.5 and 4.5)”.

Regarding B5, the “Binding, Vδ2+” value is “++ (“++” indicates an MFI above 20)”.

Turning to B6, the “Binding, Vδ2+” value was “++ (“++” indicates an MFI above 20)”.

Turning to B7, the “Binding, Vδ2+” value was “++ (“++” indicates an MFI above 20)”.

Turning to B8, the “Binding, Vδ2+” value is “− (“−” indicates a Mean Fluorescence Index (MFI) below 1.5)”.

With B9, the “Binding, Vδ2+” value was “++ (“++” indicates an MFI above 20)”.

A further data set addresses T2, Vγ9 chain (Homo sapiens, UniProt Q99603, T7A).
T2 construct: host or cells: γδ T-cells expressing a Vγ9 chain paired with a non-Vδ2 chain
The settings on record: Mean Fluorescence Index class; γδ T-cells expressing Vγ9 chain paired with non Vδ2 chain; cited from earlier work.
Regarding B1, the “Binding, Vγ9+” value is “− (“−” indicates a Mean Fluorescence Index (MFI) below 1.5)”.

Turning to B2, the “Binding, Vγ9+” value is listed as “− (“−” indicates a Mean Fluorescence Index (MFI) below 1.5)”.

B3: the “Binding, Vγ9+” value is “− (“−” indicates a Mean Fluorescence Index (MFI) below 1.5)”.

With B4, the “Binding, Vγ9+” value is listed as “++ (“++” indicates an MFI above 20)”.

Consider B5, for which the “Binding, Vγ9+” value is listed as “− (“−” indicates a Mean Fluorescence Index (MFI) below 1.5)”.

For the molecule B6, the “Binding, Vγ9+” value is recorded as “− (“−” indicates a Mean Fluorescence Index (MFI) below 1.5)”.

In the case of B7, the “Binding, Vγ9+” value is “− (“−” indicates a Mean Fluorescence Index (MFI) below 1.5)”.

For B8, the “Binding, Vγ9+” value is given as “++ (“++” indicates an MFI above 20)”.

For the molecule B9, the “Binding, Vγ9+” value was “− (“−” indicates a Mean Fluorescence Index (MFI) below 1.5)”.

Another data set addresses T3, complete Vγ9Vδ2 TCR (Homo sapiens, UniProt A0JD36+Q99603, T7A).
T3 construct: host or cells: γδ T-cells expressing the complete Vγ9Vδ2 TCR
The settings on record: Mean Fluorescence Index class; cited from earlier work.
As for B1, the “Binding, Vγ9Vδ2+” value is “+ (“+” indicates an MFI of between 4.6 and 20)”.

As for B2, the “Binding, Vγ9Vδ2+” value is given as “++ (“++” indicates an MFI above 20)”.

Turning to B3, the “Binding, Vγ9Vδ2+” value is “+/− (“+/−” indicates an MFI of between 1.5 and 4.5)”.

Consider B4, for which the “Binding, Vγ9Vδ2+” value was “++ (“++” indicates an MFI above 20)”.

Turning to B5, the “Binding, Vγ9Vδ2+” value is on record as “++ (“++” indicates an MFI above 20)”.

In the case of B6, the “Binding, Vγ9Vδ2+” value is “++ (“++” indicates an MFI above 20)”.

As to B7, the “Binding, Vγ9Vδ2+” value is listed as “++ (“++” indicates an MFI above 20)”.

With B8, the “Binding, Vγ9Vδ2+” value is reported as “++ (“++” indicates an MFI above 20)”.

For the molecule B9, the “Binding, Vγ9Vδ2+” value is given as “++ (“++” indicates an MFI above 20)”.

The next data set has as its system γδ T-cells not expressing any of the Vγ9Vδ2 TCR chains. The settings on record: Mean Fluorescence Index class; cells not expressing any Vγ9Vδ2 TCR chain; cited from earlier work.
With B1, the “Binding, Vγ9Vδ2−” value is given as “− (“−” indicates a Mean Fluorescence Index (MFI) below 1.5)”.

As to B2, the “Binding, Vγ9Vδ2−” value is given as “− (“−” indicates a Mean Fluorescence Index (MFI) below 1.5)”.

For the molecule B3, the “Binding, Vγ9Vδ2−” value is listed as “− (“−” indicates a Mean Fluorescence Index (MFI) below 1.5)”.

In the case of B4, the “Binding, Vγ9Vδ2−” value is “− (“−” indicates a Mean Fluorescence Index (MFI) below 1.5)”.

Turning to B5, the “Binding, Vγ9Vδ2−” value was “− (“−” indicates a Mean Fluorescence Index (MFI) below 1.5)”.

In the case of B6, the “Binding, Vγ9Vδ2−” value is reported as “− (“−” indicates a Mean Fluorescence Index (MFI) below 1.5)”.

With B7, the “Binding, Vγ9Vδ2−” value was “− (“−” indicates a Mean Fluorescence Index (MFI) below 1.5)”.

Take B8: the “Binding, Vγ9Vδ2−” value is “− (“−” indicates a Mean Fluorescence Index (MFI) below 1.5)”.

With B9, the “Binding, Vγ9Vδ2−” value is given as “− (“−” indicates a Mean Fluorescence Index (MFI) below 1.5)”.
